B1: E3: human anti-Tie1 antibody from phage Fab library, reformatted as IgG; HC variable SEQ ID NO:114, LC variable SEQ ID NO:116 (antibody, V domains shown)
VH: EVQLLESGGGLVQPGGSLRLSCAASGFTFSMYGMVWVRQAPGKGLEWVSVISPSGGNTGYADSVKGRFTISRDNSKNTLYLQVNSLRAEDTAVYYCARAPRGYSYGYYYWGQGTLVTVSSASTKGPSVFPLAPSSKSTSGG
VL: DIQMTQSPLSLSASVGDRVTITCRASQGIGHYLAWYQQKPGKVPKLLIYTASTLQSGVPSRFSGSGSGTDFTLTINSLQPEDVATYYCQQFNSYPHTFGQGTRLDIK
modifications: IgG constant regions; Synthetically generated peptide
B2: parental E3 Fab: soluble Fab fragment of the parental E3 anti-Tie1 antibody (antibody, V domains shown)
VH: B1 VH
VL: B1 VL

Target: T1, Tie1-EpoR chimeric receptor (UniProt P14753+P35590)
T1 construct: PCR amplified extracellular part of human Tie1 (bp 37-2316 of X60975); expressed in transfected cells
T1 sequence (P35590+P14753 with tags, fused parts or gaps): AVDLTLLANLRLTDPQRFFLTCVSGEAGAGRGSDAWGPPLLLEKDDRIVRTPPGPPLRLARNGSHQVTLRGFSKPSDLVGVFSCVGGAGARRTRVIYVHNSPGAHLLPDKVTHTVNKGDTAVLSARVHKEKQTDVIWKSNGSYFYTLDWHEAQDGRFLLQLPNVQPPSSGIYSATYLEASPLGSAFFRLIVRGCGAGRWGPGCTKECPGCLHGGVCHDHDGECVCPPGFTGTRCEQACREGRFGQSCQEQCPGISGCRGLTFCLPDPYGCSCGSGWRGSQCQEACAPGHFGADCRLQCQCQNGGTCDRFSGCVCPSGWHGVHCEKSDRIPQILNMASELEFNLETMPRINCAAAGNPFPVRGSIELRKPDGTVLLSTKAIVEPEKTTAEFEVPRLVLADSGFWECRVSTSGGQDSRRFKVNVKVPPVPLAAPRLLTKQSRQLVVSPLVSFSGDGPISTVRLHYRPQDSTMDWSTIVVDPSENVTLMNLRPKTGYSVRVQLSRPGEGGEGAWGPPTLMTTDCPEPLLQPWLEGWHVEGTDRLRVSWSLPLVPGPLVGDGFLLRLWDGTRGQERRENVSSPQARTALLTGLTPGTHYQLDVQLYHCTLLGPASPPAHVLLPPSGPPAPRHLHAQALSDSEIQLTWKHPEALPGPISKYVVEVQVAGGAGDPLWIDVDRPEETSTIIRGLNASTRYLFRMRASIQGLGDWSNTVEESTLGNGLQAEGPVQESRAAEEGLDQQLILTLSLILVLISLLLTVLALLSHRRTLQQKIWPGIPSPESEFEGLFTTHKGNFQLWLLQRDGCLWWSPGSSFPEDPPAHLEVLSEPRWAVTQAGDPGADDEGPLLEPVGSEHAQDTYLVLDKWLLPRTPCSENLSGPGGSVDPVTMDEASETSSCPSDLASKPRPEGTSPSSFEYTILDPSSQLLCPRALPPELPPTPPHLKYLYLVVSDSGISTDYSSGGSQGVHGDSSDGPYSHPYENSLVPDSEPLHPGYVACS
Assay: BaF3 bioassay (Tie1/EpoR chimeric BaF3 cell assay)
Assay type: cell-based, human
Conditions: for survival (viability) of Tie1-EpoR BaF3 cells: no IL-3, MTT
Description: BaF3 bioassay. To generate Tie1-EpoR expressing BaF3 cells for the bioassay, BaF3 pre-B cells were stably transfected with a nucleic acid that expresses chimeric receptor containing the extracellular domain of human Tie1 fused with the transmembrane and cytoplasmic domains of the mouse erythropoietin receptor. The nucleic acid used was a Tie1-EpoR chimeric cDNA in a pEF-BOS expression vector. The nucleic acid encoding the chimeric receptor was constructed by cloning the PCR amplified extracellular part of human Tie1 (bp 37-2316 of X60975) as EcoRI-BglII fragment into mEpoR-pcDNA vector. The cDNA encoding for the chimeric receptor consisting of the extracellular part of Tie1 fused with the transmembrane and intracellular domains of EpoR was subcloned into the pEF-BOS expression vector. Vector was linearized and co-transfected into BaF3 cells with pcDNA3.1(+) Zeo vector (Invitrogen). Stable cell pools were generated by selection with 250 μg/ml Zeocin. The expression of Tie1/EpoR fusion protein in several clones was analyzed by Western blotting with an antibody against EpoR.
To perform the assays, BaF3 cells expressing the Tie1-EpoR chimera were split in 96-well microtiter plates at 50 000 cells/well in the presence of the indicated concentrations of anti-Tie1 antibodies. The E3 antibody used in this study was the germ-lined E3 antibody (DX-2220). As controls, Zeocin resistant pools not expressing the Tie1-EpoR were used. After 48 h, the viability of the cells was determined by adding MTT (3-(4,5-dimethylthiazol-2-yl)-2,5-diphenyl tetrazolium bromide (Sigma), 0.5 mg/ml), followed by further 2 h of culture, addition of an equal volume of cell lysis solution (10% SDS, 10 mM HCl) and incubation overnight at 37° C. Absorbance was measured at 540 nm.
Stimulation and inhibition of Tie1 in Tie1-EpoR transfected BaF3 cells and human primary endothelial cells. Although no ligand for Tie1 has been identified, we used the following efficient screening method for Tie1-binding proteins. Interleukin-3 dependent pre-B-lymphocyte (BaF3) cells were transfected with a construct that expresses a Tie1-EpoR fusion protein. Since BaF3 cells are IL-3 dependent, they die unless IL-3 is provided. However, Tie-EpoR receptor expressing BaF3 cells can survive and proliferate if the medium contains a Tie1-binding protein, either a natural ligand or an artificial mimetic. Cell survival can be quantitated, e.g., by colorimetric MTT-assay, which measures mitochondrial activity.
To determine if any of the other monoclonal antibodies tested inhibit the survival effect of E3 IgG in Tie1-EpoR BaF3 assay, antibodies were studied in combination with E3 IgG. A concentration of 100 ng/ml of E3 IgG together with 100 (1:1) or 500 (1:5) ng/ml of the other antibodies were used and the viability of Tie1-EpoR cells was measured.

| Molecule | viability of EpoR BaF3 cells used as a control (cells not expressing Tie1-EpoR) | survival (viability) of Tie1-EpoR BaF3 cells | survival (viability) of Tie1-EpoR BaF3 cells (listed as E3 IgG) | concentration giving almost maximal viability in Tie1-EpoR cell survival assays (viability dose dependent) [ng/mL] |
| --- | --- | --- | --- | --- |
| B1 | not affected | functions as a Tie1 activating antibody in the BaF3 cell bioassay | able to promote survival of Tie1-EpoR cells | 50 |
| B2 | – | no effect on the viability of Tie1-EpoR cells | – | – |
